In patent US20250177503A1, “COMPOSITIONS AND METHODS FOR TREATING AUTOIMMUNE DISORDERS” (THE REGENTS OF THE UNIVERSITY OF MICHIGAN, priority 2022, published 2025):

System: CD4+CD25+Foxp3+T regulatory cells (Tregs)
Assay: Example III: dosing regimen optimisation, ND-OVA + IL-2/IC vs ND-OVA + wtIL-2, flow cytometry of peripheral blood CD4+ T cells
Type: in vivo, C57BL/6 mice
Settings: summary of findings
Method: Animals were cared for following federal, state, and local guidelines. All work performed on animals was in accordance with and approved by Institutional Animal Care & Use Committee (IACUC) at the University of Michigan, Ann Arbor. Seven-week-old female C57BL/6 mice were randomly divided into 6 groups with 5 mice in each group. For Group 1 (ND-OVA_D−3,+7+IL2/IC_D3,4,5): 0.1 mL of ND-OVA (containing 0.1 mg OVA-II peptide) was injected into each mouse subcutaneously at the tail base at Day −3 and Day 7; 0.1 mL IL2/IC (containing 1 μg murine IL-2 and […] IL-2 mAb) was injected into each mouse intraperitoneally (i.p.) at Days 0, 1, 2, and Days 10, 11, 12. For Group 2 (ND-OVA_D−4,+6+IL2/IC_D4,5,6): 0.1 mL of ND-OVA (containing 0.1 mg OVA-II peptide) was injected into each mouse subcutaneously at the tail base at Day −4 and Day 6; 0.1 mL IL2/IC (containing […] murine IL-2 and 5 μg IL-2 mAb) was injected into each mouse intraperitoneally (i.p.) at Days 0, 1, 2, and Days 10, 11, 12. For Group 3 (ND-OVA_D−3,+7+IL2/IC_D3,4,5,6,7): 0.1 mL of ND-OVA (containing 0.1 mg OVA-II peptide) was injected into each mouse subcutaneously at the tail base at Day −3 and Day 7; 0.1 mL IL2 (containing 1 μg murine IL-2) was injected into each mouse intraperitoneally (i.p.) at Days 0, 1, 2, 3, 4 and Days 10, 11, 12, 13, 14. […]

B1: IL-2: recombinant murine IL-2 (wild type IL-2 protein) (protein, UniProt P04351 21-169, looked up)
Interleukin-2: APTSSSTSSSTAEAQQQQQQQQQQQQHLEQLLMDLQELLSRMENYRNLKLPRMLTFKFYLPKQATELKDLQCLEDELGPLRHVLDLTQSKSFQLEDAENFISNIRVTVVKLKGSDNTFECQFDDESATVVDFLRRWIAFCQSIISTSPQ
In the case of B1, the “expansion of total Tregs and antigen-specific Tregs” value is reported as “fails to expand”.
